Test results: patent US20210254072, “TNF-TARGETING APTAMERS AND USES THEREOF FOR TREATMENT OR DIAGNOSING TNF-RELATED INFLAMMATORY DISEASES” (Academia Sinica, published 2021)

Experiments:
TNF-alpha = TNF-alpha (Mus musculus, UniProt P06804 P06804:80-235); experiment: filter; 140 nM protein, 50 nM aptamer; fold over BSA, value only in figure; conditions: chain copies: 3 (inferred)
Protocol: (§1) Human TNF-α proteins (0, 8.75, 17.5, 35, 70, 140 nM, R&D Systems) were incubated with aptTNF-α (50 nM) at 37° C. for 1 h. In addition, mouse TNF-α proteins (140 nM) or BSA (140 nM) were incubated with aptTNF-α (50 nM) or aptTNF-α-PEG (50 nM) as well. The protein-bound aptamers were then collected by nitrocellulose filter and eluted by heating. The amount of the eluted aptamers was quantified by quantitative PCR (LightCycler 480 system, Roche Applied Science, Mannheim, Germany) The dissociated constant (Kd) was calculated by GraphPad Prism 5 (GraphPad Software, San Diego, Calif.), using the equation Y=Amax×X/(Kd+X). The relative amounts of protein-binding aptamers (human TNF-α proteins and mouse TNF-α proteins) were represented as fold changes, using BSA as the reference (1 fold).

[1] = molecular target: BSA (bovine serum albumin) (UniProt P02769 P02769:25-607); experiment: filter; BSA 140 nM used as reference (1 fold)
Protocol: as §1

Sequence of BSA (bovine serum albumin) (P02769 25-607, one chain of several): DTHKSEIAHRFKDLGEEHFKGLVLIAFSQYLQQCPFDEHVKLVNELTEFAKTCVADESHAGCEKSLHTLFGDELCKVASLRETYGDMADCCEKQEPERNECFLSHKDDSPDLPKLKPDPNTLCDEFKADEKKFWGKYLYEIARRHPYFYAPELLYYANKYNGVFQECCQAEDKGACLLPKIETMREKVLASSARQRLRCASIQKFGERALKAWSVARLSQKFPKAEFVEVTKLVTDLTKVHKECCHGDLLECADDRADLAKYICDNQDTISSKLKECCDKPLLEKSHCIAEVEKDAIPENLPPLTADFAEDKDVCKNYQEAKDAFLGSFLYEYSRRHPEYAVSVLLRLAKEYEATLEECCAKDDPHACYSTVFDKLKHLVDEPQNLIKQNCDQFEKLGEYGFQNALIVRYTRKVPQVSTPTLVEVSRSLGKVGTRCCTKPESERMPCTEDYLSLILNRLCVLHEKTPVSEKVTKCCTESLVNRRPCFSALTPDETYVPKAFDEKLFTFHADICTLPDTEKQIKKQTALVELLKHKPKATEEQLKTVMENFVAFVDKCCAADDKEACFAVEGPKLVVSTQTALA
Sequence of TNF-alpha (P06804 80-235, one chain of several): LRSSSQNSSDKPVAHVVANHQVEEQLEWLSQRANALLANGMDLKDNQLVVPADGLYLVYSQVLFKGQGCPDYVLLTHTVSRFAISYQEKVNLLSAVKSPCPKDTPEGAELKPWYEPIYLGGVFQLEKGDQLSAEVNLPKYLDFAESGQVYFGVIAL

Row | Binder | binding result (TNF-alpha) | binding signal [1]
1 | GCGCCACTACAGGGGAGCTGCCATTCGAATAGGTGGGCCGC (ssDNA) [aptTNF-alpha] | binds | 1 fold
2 | GCGCCACTACAGGGGAGCTGCCATTCGAATAGGTGGGCCGC (ssDNA, two copies of amine-labeled SEQ ID NO: 1 linked by 20 kDa PEG (NHS-PEG-NHS)) [aptTNF-alpha-PEG (dimer)] | binds | 1 fold
